Here are results for nine molecules from patent US20220033501A1 (SHANGHAI PHARMAEXPLORER, published 2022).

Assay [1] concerns the target T1, monkey TIM-3 protein with hFc tag (cTIM-3-hFc protein) (monkey; human).
T1 construct: Made in HEK293 cells; also called monkey TIM-3 extracellular domain protein; not shown: human IgG Fc fragment (hFc) of the pCpC vector
T1 chain: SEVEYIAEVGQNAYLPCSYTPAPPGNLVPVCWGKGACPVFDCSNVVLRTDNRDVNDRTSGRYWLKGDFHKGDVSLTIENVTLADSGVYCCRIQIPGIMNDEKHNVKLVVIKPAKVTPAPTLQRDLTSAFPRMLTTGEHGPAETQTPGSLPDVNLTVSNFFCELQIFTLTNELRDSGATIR
Put plainly: ELISA, coated cTIM-3-hFc; antibody 66.667 nM. An excerpt: (§1) The amino acid sequence 22-200 of the extracellular domain of the human TIM-3 protein described in the step of Example 1 (as shown in SEQ ID NO. 71 in the sequence listing) was cloned into a pCpC vector having a human IgG Fc fragment (hFc), and transfected into HEK293 cells. The cell culture medium was collected, and purified to obtain the human TIM-3 protein with hFc tag (herein referred to as hTIM-3-hFc protein). The amino acid sequence 22-201 of the extracellular domain of the monkey TIM-3 protein (as shown in SEQ ID NO. 72 in the sequence listing) was cloned into a pCpC vector having a human IgG Fc fragment (hFc), and transfected into HEK293 cells. The cell culture medium was collected, and purified to obtain the monkey TIM-3 protein with hFc tag (herein referred to as cTIM-3-hFc protein). […] The cell culture medium was collected, and purified to obtain the murine TIM-3 protein with hFc tag (herein referred to as mTIM-3-hFc protein). Purified human, monkey, and mouse TIM-3 extracellular domain proteins (hTIM-3-hFc, cTIM-3-hFc, and mTIM-3-hFc) were diluted with PBS to a final concentration of 1.0 μg/ml and then added to a 96-well ELISA plate with 100 μl per well. The plate was sealed with plastic film and incubated overnight at 4° C. The plate was washed 4 times with the plate washing solution (PBS+0.01% Tween20) on the next day, and added with the blocking solution (PBS+0.01% Tween20+1% BSA) and sealed at room temperature for 1-2 hours. The blocking solution was poured out. 50-100 μl of the antibody sample to be tested was added to each well. The plate was incubated at 37° C. for 1-2 hours, and washed 2-3 times with plate washing solution (PBS+0. 01% Tween20). HRP (horseradish peroxidase) labeled secondary antibody was added. The plate was incubated at 37° C. for 1-2 hours, and washed 2-3 times with plate washing solution (PBS+0. 01% Tween20). […] of TMB substrate was added to each well. After incubated at room temperature for 15-30 minutes, the plate was added with […] stop solution (1.0N HCl) to each well. An ELISA plate reader (TiterMax 384plus, Molecular Device) was used to read the A450 nm value.

For assay [2], the target named is T2, human TIM-3 protein with hFc tag (hTIM-3-hFc protein) (human, UniProt Q8TDQ0 22-200).
T2 construct: also called immunogen 1; human TIM-3 extracellular domain protein; not shown: human IgG Fc fragment (hFc) of the pCpC vector
T2 sequence: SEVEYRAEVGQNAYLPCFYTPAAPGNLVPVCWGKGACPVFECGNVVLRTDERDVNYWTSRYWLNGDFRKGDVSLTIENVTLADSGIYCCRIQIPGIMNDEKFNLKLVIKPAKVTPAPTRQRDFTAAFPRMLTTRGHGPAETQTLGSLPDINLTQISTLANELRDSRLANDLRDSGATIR
Description: ELISA, coated hTIM-3-hFc; antibody 6.6667 nM.
From the text: as §1

In assay [3] the target is T3, murine TIM-3 protein with hFc tag (mTIM-3-hFc protein) (mouse; human, UniProt Q8VIM0 29-191).
T3 construct: Made in HEK293 cells; also called mouse TIM-3 extracellular domain protein; not shown: human IgG Fc fragment (hFc) of the pCpC vector
T3 chain: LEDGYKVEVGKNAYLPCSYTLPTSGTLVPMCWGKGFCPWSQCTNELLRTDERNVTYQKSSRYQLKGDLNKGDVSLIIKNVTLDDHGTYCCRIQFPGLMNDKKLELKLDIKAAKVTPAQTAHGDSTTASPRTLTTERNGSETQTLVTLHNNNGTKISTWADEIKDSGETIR
Put plainly: ELISA, coated mTIM-3-hFc; antibody 0 nM (blank).
From the text: as §1

The target of assay [4] is T2, human TIM-3 protein with hFc tag …. Description: ELISA, coated hTIM-3-hFc; antibody 0.0001 nM.
From the text: as §1

For assay [5], the target named is T4, monkey TIM-3 extracellular domain protein with hFc tag (cTIM-3-hFc) (monkey).
T4 construct: not shown: human IgG Fc fragment (hFc) of the pCpC vector
T4 chain: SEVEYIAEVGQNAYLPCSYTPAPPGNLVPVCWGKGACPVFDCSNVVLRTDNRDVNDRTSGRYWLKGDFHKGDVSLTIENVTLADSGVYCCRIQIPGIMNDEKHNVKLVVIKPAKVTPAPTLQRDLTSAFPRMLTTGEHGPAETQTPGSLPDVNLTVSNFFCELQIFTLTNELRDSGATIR
Description: ELISA, coated monkey TIM-3 ECD protein, 66.667 nM antibody.

In assay [6] the target is T5, monkey TIM-3 on CHOK1 stable cell line (CHOK1-cTIM-3) (monkey).
T5 chain: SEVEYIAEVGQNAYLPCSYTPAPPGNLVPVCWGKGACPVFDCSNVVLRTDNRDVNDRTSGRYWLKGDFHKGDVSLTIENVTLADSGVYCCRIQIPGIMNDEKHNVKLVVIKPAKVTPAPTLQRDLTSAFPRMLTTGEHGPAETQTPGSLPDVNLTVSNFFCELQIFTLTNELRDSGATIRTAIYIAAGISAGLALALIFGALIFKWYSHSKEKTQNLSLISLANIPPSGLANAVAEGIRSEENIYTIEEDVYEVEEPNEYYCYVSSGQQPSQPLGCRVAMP
Description: FACS, CHOK1-cTIM-3 cells, 40 nM antibody.

The target in assay [7] is T6, human TIM-3 extracellular domain protein with hFc tag (hTIM-3-hFc) (human, UniProt Q8TDQ0 22-200).
T6 construct: not shown: human IgG Fc fragment (hFc) of the pCpC vector
T6 sequence: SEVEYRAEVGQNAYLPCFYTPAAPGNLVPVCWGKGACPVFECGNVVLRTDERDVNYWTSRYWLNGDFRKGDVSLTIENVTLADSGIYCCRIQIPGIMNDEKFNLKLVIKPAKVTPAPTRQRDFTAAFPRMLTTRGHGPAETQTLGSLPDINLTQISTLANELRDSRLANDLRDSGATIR
Description: ELISA, coated human TIM-3 ECD protein, 6.6667 nM antibody.

The target of assay [8] is T4, monkey TIM-3 extracellular domain …. Put plainly: ELISA, coated monkey TIM-3 ECD protein, 0.0067 nM antibody.
Assay [9] deals with T5, monkey TIM-3 on CHOK1 stable cell line …. Put plainly: FACS, CHOK1-cTIM-3 cells, 0 nM antibody.
Assay [10] shares this target. Description: FACS, CHOK1-cTIM-3 cells, 8 nM antibody.
Assay [11] concerns the target T4, monkey TIM-3 extracellular domain …. Put plainly: ELISA, coated monkey TIM-3 ECD protein, 0 nM antibody.

B1: 7A4F10 (TIM-3 antibody purified from hybridoma, chimeric antibody of Example 2) (antibody, V domains shown)
VH: EVQLLESGGGLVQPGGSLRLSCAASGFTFRTHLISWVRQAPGKGLEWVAAITGSGGSTYYADSVKGRFIISRDNSKNTLFLQMNSLRAEDTAVYYCAKDGGSGSYDDFWGQGTLVTVSS
VL: ETVLTQSPVTLSLSPGERATLSCRASQSVGSYLAWYQQKPGQAPRLLIYDASNRATGIPARFSGSGSGTDFTLTISSLEPEDFAVYYCQQRSNWPPTFGQGTKVEIK
notes: From hybridoma of Harbour H2L2 transgenic mice: human variable regions, rat constant regions
Regarding B1, the OD450 is 3.46 in assay [1], 2.92 in assay [2], 0.63 in assay [3] and 0.12 in [4].

B2: 57F4E5 fully human TIM-3 antibody (human IgG4, kappa) (antibody, V domains shown)
VH: EVQLVESGGGLVQPGGSLRLSCAASGFTFSSYWMSWVRQAPGKGLEWVANIKQDGSEKYYVDSVKGRFTISRDSAKNSLYLQMNSLRAEDTAMYFCARDSNFFDYWGQGTLVTVSS
VL: ETVMTQSPATLSVSPGERATLSCRASQSVSSNLAWYQRKPGQAPRLLIYFSSTRATGIPARFSGSGSGTEFTLTISSLQSEDFAVYYCQQYNNWPLTFGGGTKVEIK
For B2, the OD450 in [5] was determined as 3.42; in assay [7] it was 2.91; in [8], 0.32; in assay [11], 0.16. The Mean fluorescence intensity came out at 269 in [6], 2.9 in [9] and 259 in assay [10].

B3: 134H3G6 (TIM-3 antibody purified from hybridoma, chimeric antibody of Example 2) (antibody, V domains shown)
VH: EVQLVESGGGLVQPGGSLRLSCAASGFTFSNSWMTWVRQAPGKGLEWVANIKQAGTEKYYVDSVKGRFTISRDNAKNSLYLQMNSLRAEDTAVYYCNSGSNYFDYWGQGTLVTVSS
VL: EIVMTQSPATLSVSPGERATLSCRARQNFYSNLAWYQQKPGQAPRLLIYGASTRATGIPARFSGSGSGTEFTLTISSLQSEDFAVYYCQQYNNWPLTFGGGTKVEIK
notes: as for B1
For B3, the OD450 in [1] amounted to 3.43; in assay [2], 2.57; in assay [3], 0.64; in assay [4], 0.12.

B4: 134H3G6 fully human TIM-3 antibody (human IgG4, kappa) (antibody, V domains shown)
VH: EVQLVESGGGLVQPGGSLRLSCAASGFTFSNSWMTWVRQAPGKGLEWVANIKQAGTEKYYVDSVKGRFTISRDNAKNSLYLQMNSLRAEDTAVYYCNSGSNYFDYWGQGTLVTVSS
VL: EIVMTQSPATLSVSPGERATLSCRARQNFYSNLAWYQQKPGQAPRLLIYGASTRATGIPARFSGSGSGTEFTLTISSLQSEDFAVYYCQQYNNWPLTFGGGTKVEIK
As to B4, the OD450 was 3.11 in [5], 2.81 in [7], 0.3 in assay [8] and 0.13 in assay [11]. Further, the values for the Mean fluorescence intensity in [6], in [9] and in assay [10] were 376, 2.9 and 401, respectively.

B5: 18D2H2 (TIM-3 antibody purified from hybridoma, chimeric antibody of Example 2) (antibody, V domains shown)
VH: EVQLVESGGDLVQPGGSLRLSCAASGFTFSTYWMTWVRQAPGRGLEWVANIKQDGSAKYYVDSVKGRFTLSRDDAKNSLYLQMNSLRAEDTAVYYCARGSNWFDYWGQGTLVTVSS
VL: ETVMTQSPATLSVSPGERATLSCRANQNVYSNLAWYQQKPGQAPRLLIYDASTRATGFPARFSGSGSGTEFTLTISSLQSEDFAVYYCQQYNNWPLTFGGGTKVEIK
notes: as for B1
Turning to B5, the OD450 in assay [1] turned out to be 3.44; in assay [2], 2.86; in assay [3], 0.62; in assay [4] it was 0.12.

B6: 57F4E5 (TIM-3 antibody purified from hybridoma, chimeric antibody of Example 2) (antibody, V domains shown)
VH: EVQLVESGGGLVQPGGSLRLSCAASGFTFSSYWMSWVRQAPGKGLEWVANIKQDGSEKYYVDSVKGRFTISRDSAKNSLYLQMNSLRAEDTAMYFCARDSNFFDYWGQGTLVTVSS
VL: ETVMTQSPATLSVSPGERATLSCRASQSVSSNLAWYQRKPGQAPRLLIYFSSTRATGIPARFSGSGSGTEFTLTISSLQSEDFAVYYCQQYNNWPLTFGGGTKVEIK
notes: as for B1
As to B6, the OD450 in assay [1] turned out to be 3.47; in assay [2], 3.29; in assay [3] it was 0.64; in assay [4], 0.13.

B7: 39E5H1 (TIM-3 antibody purified from hybridoma, chimeric antibody of Example 2) (antibody, V domains shown)
VH: EVQLVESGGGLVQPGGSLRLSCAASGFTFSSYWMSWVRQAPGKGLEWVANIKRGGSERYYVDSVKGRFTISGDNAKNSVYLQMNSLRAEDTAVYYCARGSNWFDPWGQGTLVTVSS
VL: ETVMTQSPAILSVSPGERATLSCRASQSVYSNLAWYQQKLGQAPRLLIYDASTRATGIPARFSGSGSGTEFTLTISSLQSEDFAVYYCQQYNNWPITFGQGTRLEIK
notes: as for B1
Take B7: the OD450 came to 3.47 in [1], 3.34 in assay [2], 0.62 in assay [3] and 0.13 in assay [4].

B8: 215A8F2 (TIM-3 antibody purified from hybridoma, chimeric antibody of Example 2) (antibody, V domains shown)
VH: QVQLQQWGAGLLKPSETLSLTCTVYGGSFSGYYWNWIRQPPGKGLEWLGEINHSGSTNYNPSLKRRVTISVDTSKNQFSLKLSSVTAADTAVYYCARVYYYGPFDFWGQGTLVTVSS
VL: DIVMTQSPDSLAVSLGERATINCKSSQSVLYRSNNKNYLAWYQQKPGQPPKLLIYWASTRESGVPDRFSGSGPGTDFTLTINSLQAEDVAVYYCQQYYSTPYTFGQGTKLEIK
notes: as for B1
With B8, the OD450 in assay [1] came to 3.49; in [2] it was 3.15; in assay [3], 0.63; in [4] it was 0.12.

B9: 34B6D8 (TIM-3 antibody purified from hybridoma, chimeric antibody of Example 2) (antibody, V domains shown)
VH: EVQLVESGGGLVQPGGSLRLSCAASGFTFSTYWMTWVRQAPGKRLEWVANIKQGGGDKYYVDSVKGRFTISTDNAKNSLYLQMNSLRAEDTAVYYCARGSNWFDPWGQGTLVTVSS
VL: EIVMTQSPATLSMSPGERATLSCRASQSVYDNLAWYQQKPGQAPRLLIYGASTRATGIPARFSGSGSGTEFTLTISSLQSEDFALYYCQQYTHWPITFGQGTRLEIK
notes: as for B1
As to B9, the OD450 was found to be 3.52 in [1], 3.4 in assay [2], 0.66 in [3] and 0.12 in assay [4].
